Test results taken from US20240321457A1, “SYSTEMS FOR AND METHODS OF TREATMENT SELECTION” (THE REGENTS OF THE UNIVERSITY OF CALIFORNIA, priority 2020, published 2024).

Biological target: UBE2N (human) (UniProt P61088)
Assay: AP-MS, PPI score from compPASS and SAINTexpress, MDA-MB-231 cells

Chain of UBE2N (human) (P61088 whole entry): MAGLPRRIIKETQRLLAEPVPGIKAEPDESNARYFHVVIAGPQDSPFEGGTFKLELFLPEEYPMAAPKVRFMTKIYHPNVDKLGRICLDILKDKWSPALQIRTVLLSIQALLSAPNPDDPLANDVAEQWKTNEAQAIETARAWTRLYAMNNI

PPI score: < 0.6
Substance: BRCA1 isoform lacking exon 11 (from UniProt P38398 1-721) (enzyme)
